Tests used:
[1] = substrate: O=C(O)c1ccccc1O; experiment: LC-MS glucosyltransferase assay; type: biochemical, Camellia sinensis; conditions: 2.5 mM UDP-glucose, optimal conditions (pH 8.0-8.5, 30°C), 0-300 μM substrate
[2] = substrate: O=C(O)c1c(O)cccc1O; experiment: LC-MS glucosyltransferase assay; type: biochemical, Camellia sinensis; conditions: 2.5 mM UDP-glucose, optimal conditions (pH 8.0-8.5, 30°C), 0-300 μM substrate

B1: CsUGT74B5 (rCsUGT74B5) (Camellia sinensis) (protein)
chain: MEQRNHGGHVVVLPYPSQGHINPLLQFAKRLASKGVKATLATTHYTVKSICVPNIAVEPISDGFDNGGFTQARAEDVYLKSLRENGSRTLSQLIEKHKNTNFPINCVVYDSFFPWALDVAKTHGIYGAPFFTNSATVCAIFCHVHHGLVKLPVKVEELPLVLPGIPPLNLVDLPSFVQAPESYPAYLAMKLSQYSNLDKADWVFGNTFEELEGEAVKNVLELWPGKMIGPMVPSAYLDGRIEEDKGYGASLWKPLSSDCAKWLEAKPSQSVVYVSFGSMVSLTEEQMEEMAWGLKGSNLDFIWVVRESEITKLPSEFTNSTAQEKGLIVTWCNQLEMLAHQAIGCFVTHCGWNSTLEGLSLGVPMVGVPKWTDQLTDAKFIEEIWGVGFRAKEDEKGVVRREELMGCLKEVMEGERSVEIRKNCCKWKELAKEAISEGGSSDKSIDEFVEQLKSGNEKGVVKYLTNGNGHY
notes: full CDS in pMAL-c2X (N-terminal MBP fusion, tag cleavage not mentioned), expressed in E. coli Novablue (DE3), amylose resin purified
Km [1]: 42.01 µM | Km [2]: 15.26 µM
